Reference: the supplement of paper PMC9732359
± gives the uncertainty stated by the source.

Experiment: protein stability index of a GFP-peptide fusion (yeast GPS) (PSI 1-4); higher = more stable; sorted into four equal gates, so the index is relative within each strain
Procedure, shortened: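 Yeast carrying a pooled library were grown to mid-log phase in leucine-free medium. Each library plasmid expresses Cherry and has a tiled 17-residue yeast protein peptide fused downstream of GFP. Cells were sorted into four equal gates by GFP/Cherry ratio, and plasmids from each gate were PCR-amplified, Illumina-sequenced and assigned to strains by barcode. Summing, across gates, the read frequency times the gate number gave each peptide's protein stability index.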

Sequence | protein stability index (doa10∆) | protein stability index (pdr5∆) | protein stability index (ubr1∆) | protein stability index (san1∆)
QLISAVLVSMGSSNKAV [YJL039C/NUP192] | 1.47 ± 0.23 | 1.69 ± 0.14 | 1.23 ± 0.084 | –
VMTVPGIDPTRIYTNSF [RPO21] | 2.44 ± 0.072 | 2.11 ± 0.067 | 2.1 ± 0.056 | 2.59 ± 0.08
EKLYIFYKLNMPDEFNT [SRP72] | 2.13 ± 0.043 | 1.96 ± 0.053 | 1.6 ± 0.041 | 1.91 ± 0.078
ALEFLNTTLQDNVSFIE [REC8] | 2.95 ± 0.072 | 3.27 ± 0.12 | 2.87 ± 0.072 | 3.05 ± 0.11
IVKTSSGNEMPPQDAEG [RPS19A] | 2.3 ± 0.25 | 3.46 ± 0.29 | – | –
DTKDALSTRELAGKVGS [RPC53] | 2.8 ± 0.08 | 2.27 ± 0.084 | 3.08 ± 0.071 | 2.79 ± 0.1
LGRLVKAGKITTIEEIF [RPS2] | 2.03 ± 0.099 | 2.29 ± 0.12 | 2.25 ± 0.12 | 2.16 ± 0.14
IEPQVINYLALNAANYN [ECM29] | 3.37 ± 0.13 | 2.63 ± 0.12 | 2.33 ± 0.078 | 2.15 ± 0.24
ETIIFDSELNRALFETK [RRI1] | 3.03 ± 0.14 | 2.66 ± 0.14 | 3.35 ± 0.17 | 3.2 ± 0.062
VRKELRGRAVVLMGKNT [RPP0] | 1.71 ± 0.067 | 1.83 ± 0.094 | 2.08 ± 0.057 | 2.12 ± 0.15
LPDPILKNFLSYESLKK [MCD1] | 3 ± 0.094 | 3.14 ± 0.091 | 3.37 ± 0.058 | 3.34 ± 0.046
KSHVLLATPVQFELLSR [BRR2] | 2.31 ± 0.057 | 1.58 ± 0.052 | 2.08 ± 0.049 | 2.02 ± 0.066
FVDLVEHFLKLNIDFGS [YML103C/NUP188] | 2.53 ± 0.067 | 2.46 ± 0.06 | 2.84 ± 0.094 | 2.54 ± 0.11
KKKDPVNQDKANNASQI [SNF12] | 3.02 ± 0.093 | 3.22 ± 0.11 | 3.19 ± 0.068 | 3.19 ± 0.075
AHAQHQPSQQPQQAQQQ [GAL11] | 2.92 ± 0.041 | 3.03 ± 0.037 | 2.98 ± 0.031 | 3 ± 0.032
FQKETNMKVTILHGSKS [PRP28] | – | 3.38 ± 0.29 | 3.18 ± 0.21 | 3.21 ± 0.093
LCQKSPVMADLNGGLQF [FAS2] | 2.79 ± 0.11 | 2.65 ± 0.17 | 2.53 ± 0.2 | 2.94 ± 0.14
YVKAVSDKAQLNVVMKN [SMC4] | 2.1 ± 0.074 | 2.07 ± 0.063 | 2.19 ± 0.053 | 1.6 ± 0.11
TEIENYLLENNQVGTDE [YDL116W/NUP84] | 3.11 ± 0.11 | 2.9 ± 0.082 | 2.84 ± 0.098 | 3.39 ± 0.072
VKIRATGGTRTKTPGPG [RPS14A] | 3.21 ± 0.25 | 3.08 ± 0.16 | 3.33 ± 0.21 | 2.72 ± 0.14
RIIRKKIFIAVVWYQRL [RRI2] | 1.28 ± 0.042 | 1.27 ± 0.036 | 1.25 ± 0.034 | 1.27 ± 0.084

Sequence | protein stability index (doa10∆) | protein stability index (pdr5∆) | protein stability index (ubr1∆) | protein stability index (san1∆)
FTGDFLRRVEERFTKSK [FAS1] | 3.29 ± 0.14 | 3.6 ± 0.16 | 2.78 ± 0.27 | 3.19 ± 0.083
TPIAGRFTPGSFTNYIT [RPS0A] | 3.01 ± 0.11 | 2.99 ± 0.072 | 3.16 ± 0.1 | 2.97 ± 0.082
ECADLWPRVASNSGVVV [RPL23A] | 2.9 ± 0.17 | 2.63 ± 0.1 | 3.17 ± 0.062 | 3.06 ± 0.11
WYIEKVIRIPMQENDKI [CSI1] | 3.05 ± 0.14 | 2.78 ± 0.1 | 3.02 ± 0.14 | –
QENGTIFRGSLIGCIPY [YDL088C/ASM4] | 2.59 ± 0.052 | 2.57 ± 0.052 | 2.5 ± 0.038 | 2.48 ± 0.061
VEYNLFTNRSTMMANFE [BRN1] | 2.11 ± 0.18 | 2.4 ± 0.18 | 2.65 ± 0.053 | 2.37 ± 0.095
RTNNVPMIKAEETPSKT [NUT1] | 2.9 ± 0.1 | 2.86 ± 0.084 | 2.66 ± 0.078 | 2.43 ± 0.097
EDHIFFKYIYELILAGA [YDL116W/NUP84] | 1.74 ± 0.07 | 1.98 ± 0.064 | 1.66 ± 0.061 | 1.69 ± 0.089
GNNPSWVNNPKKRFTPH [YDL088C/ASM4] | 3.42 ± 0.23 | – | – | –
SIKSKVVDHHVENELLQ [RRP42] | 3.38 ± 0.13 | 3.24 ± 0.2 | – | 2.82 ± 0.17
ILDFGPGGASGLGVLTH [FAS1] | 2.82 ± 0.082 | 2.74 ± 0.092 | 2.84 ± 0.2 | –
PNIFPNLTYYNEKLECI [ITC1] | 2.6 ± 0.07 | 2.58 ± 0.067 | 2.68 ± 0.05 | 2.59 ± 0.056
IIVENSGTSGDEDVDVL [RPN2] | 3.3 ± 0.12 | 3.61 ± 0.095 | 3.52 ± 0.095 | 3.5 ± 0.075
HVLKKNPLKNKQVLLRL [RPL4A] | 1.43 ± 0.15 | 1.79 ± 0.086 | 2.38 ± 0.088 | 1.3 ± 0.13
SQSQQKLLKEKVKLFHG [MED2] | 3.1 ± 0.091 | 3.1 ± 0.093 | 2.81 ± 0.08 | 3.07 ± 0.057
RKKARTFDSSWNWAKQS [FAS2] | 1.79 ± 0.14 | 1.97 ± 0.12 | 2.95 ± 0.074 | 2.32 ± 0.12
GVGKRKVWLDPNETSEI [RPL19A] | 3.13 ± 0.23 | 3.69 ± 0.24 | 3.04 ± 0.29 | –
AVNSIMALKFVSIKFTN [ECM29] | – | 3.12 ± 0.11 | 3.13 ± 0.22 | 2.87 ± 0.13
NIDETSDEVSRGIPRLS [SMC4] | 3.06 ± 0.2 | – | – | 2.97 ± 0.22
EFIQDSAARGLSLVYEI [ECM29] | – | – | 3.64 ± 0.12 | –
